Measurements from patent US20140287471A1, “VARIANT CBH I POLYPEPTIDES WITH REDUCED PRODUCT INHIBITION” (BP CORPORATION NORTN AMERICA INC., priority 2011, published 2014).
Changes are numbered by the printed parent chain.

B1: 268_+411A Ile (protein, UniProt P62694 18-513, looked up, variant R268I R411A)
Exoglucanase 1: QSACTLQSETHPPLTWQKCSSGGTCTQQTGSVVIDANWRWTHATNSSTNCYDGNTWSSTLCPDNETCAKNCCLDGAAYASTYGVTTSGNSLSIGFVTQSAQKNVGARLYLMASDTTYQEFTLLGNEFSFDVDVSQLPCGLNGALYFVSMDADGGVSKYPTNTAGAKYGTGYCDSQCPRDLKFINGQANVEGWEPSSNNANTGIGGHGSCCSEMDIWEANSISEALTPHPCTTVGQEICEGDGCGGTYSDNIYGGTCDPDGCDWNPYRLGNTSFYGPGSSFTLDTTKKLTVVTQFETSGAINRYYVQNGVTFQQPNAELGSYSGNELNDDYCTAEEAEFGGSSFSDKGGLTQFKKATSGGMVLVMSLWDDYYANMLWLDSTYPTNETSSTPGAVAGSCSTSSGVPAQVESQSPNAKVTFSNIKFGPIGSTGNPSGGNPPGGNRGTTTTRRPATTTGSSPGPTQSHYGQCGGIGYSGPTVCASGTTCQVLNPYYSQCL
B2: 268A+411— Ile (protein, UniProt P62694 18-513, looked up, variant R268A R411I)
Exoglucanase 1: B1 Exoglucanase 1 with I251A, A394I
B3: 268A+411— Leu (protein, UniProt P62694 18-513, looked up, variant R268A R411L)
Exoglucanase 1: B1 Exoglucanase 1 with I251A, A394L
B4: 268A+411— Val (protein, UniProt P62694 18-513, looked up, variant R268A R411V)
Exoglucanase 1: B1 Exoglucanase 1 with I251A, A394V
B5: 268_+411A Val (protein, UniProt P62694 18-513, looked up, variant R268V R411A)
Exoglucanase 1: B1 Exoglucanase 1 with I251V
B6: 268_+411A Trp (protein, UniProt P62694 18-513, looked up, variant R268W R411A)
Exoglucanase 1: B1 Exoglucanase 1 with I251W
B7: 268A+411— Trp (protein, UniProt P62694 18-513, looked up, variant R268A R411W)
Exoglucanase 1: B1 Exoglucanase 1 with I251A, A394W
B8: 268_+411A Arg (protein, UniProt P62694 18-513, looked up, variant R411A)
Exoglucanase 1: B1 Exoglucanase 1 with I251R
B9: 268A+411— Asp (protein, UniProt P62694 18-513, looked up, variant R268A R411D)
Exoglucanase 1: B1 Exoglucanase 1 with I251A, A394D
B10: 268_+411A Pro (protein, UniProt P62694 18-513, looked up, variant R268P R411A)
Exoglucanase 1: B1 Exoglucanase 1 with I251P
B11: 268A+411— Ala (protein, UniProt P62694 18-513, looked up, variant R268A R411A)
Exoglucanase 1: B1 Exoglucanase 1 with I251A

Assay: 4-MUL cellobiose tolerance/inhibition assay, dose-response IC50 (Example 2)
Format: biochemical
Settings: 1 mM cellobiose; primary screening; n=1
Method: (§1) CBH I activity on was measured using the 4-MUL assay using gluconolactone to inhibit any BG activity. The fluorogenic 4-MUL substrate (SIGMA) was prepared at 100 mM concentration in DMSO. Assays were run in black 96-well-flat-bottomed plates (Costar) and 4-MU fluorescence was read on a BioTek H4 plate reader (ex/em 365/450 nm). Assay plates were filled with buffer (final concentrations of 100 mM MES, pH 6, 25 mM gluconolactone, with or without cellobiose; cellobiose concentrations are listed with appropriate data sets), to which enzyme mixture was added (10-30 μl, 5 μg/mL final) and then assays were initiated by addition of 4-MUL (0.5 mM final concentration in 100 μl total volume). Enzyme mixtures were either CBH I variants from harvested supernatants or standards. Standards included: a negative control, consisting of harvested supernatant from the CBH I knock-out strain; a positive control, consisting of wild-type CBH I from harvested supernatants; and, a commercial CBH I standard (E-CBHI from Megazymes). Activity standards were run by serial dilution of commercial CBH I from 40 to 0.02 μg/mL and 4-MU (SIGMA, prepared at 20 mM in DMSO) (in dilution increments of 2-fold; all dilutions were made using harvested supernatant from the knock-out control). Kinetic rates were monitored over the first 15 mins following 4-MUL addition; initial rates were calculated based on data in the linear range. After 1 hr, a final endpoint read was taken, both before and after reaction quenching (100 μL of 200 mM Sodium Carbonate, pH 10.0). Activity was calculated for kinetic and endpoint reads; background resulting from the CBH I knock-out supernatant remained negligible. 4MU standard curves and HPLC quantification values were used to calculate specific activity.
Tolerance/inhibition values represent activity ratios and/or percent activity remaining/percent activity decreased in the presence versus the absence of cellobiose. Tolerant variants show less inhibition in the presence of cellobiose as compared to wild type, where an activity ratio of 1 (with vs. without a given concentration of cellobiose) is equivalent to 0% inhibition by cellobiose, or 100% tolerance. The effect of cellobiose on CBH I variant performance was monitored by dose-response in the 4MUL assay. Dose-response curves were generated by assaying variant activity in the presence of 6-8 different cellobiose concentrations ranging up to 100 mM cellobiose. CBH I samples were diluted to 5 μg/mL final concentration or were used directly in the case of protein quantification levels below 5 μg/mL. Half maximal inhibitory concentration (IC50) values were determined by plotting 4MUL activity versus cellobiose concentration and fitting with a four parameter dose-response fitting algorithm, with zero activity (or 100% inhibition) constrained to background activity (as established by CBH I knockout values) and with automatic outlier elimination (on GraphPad Prism 5).
Harvested supernatants from active variant isolates were evaluated for cellobiose tolerance at 1 mM cellobiose in the 4-MUL activity assay. Table 8 lists the tolerance of variants at 1 mM. […] Additional cellobiose concentrations at 0.25, 5, 10, 50, and 100 mM were tested leading to full dose-response curves for which half maximal inhibitory concentration (IC50) values were generated (Table 8). The IC50 values support that the variant library has decreased product inhibition, or increased tolerance to cellobiose, when compared to the wild-type enzyme (WT IC50=0.03 mM; see first entry, Table 8).
In one example, the cellobiose tolerance of the library was explored in more detail by generating dose-response curves and determining half maximal inhibitory concentration (IC50) values, the point at which the enzyme is 50% inhibited.

| Molecule | Tolerance at 1 mM CB (MUL Data) [%] |
| --- | --- |
| B1 | 90 |
| B2 | 107 |
| B3 | 99 |
| B4 | 102 |
| B5 | 93 |
| B6 | 84 |
| B7 | 97 |
| B8 | 72 |
| B9 | 93 |
| B10 | 80 |
| B11 | 83 |

Same assay, conditions: primary screening; 10 μL enzyme; cellobiose range 0.0001-100 mM; n=1; read-out: IC50 (MUL Data)

| Molecule | IC50 [mM] |
| --- | --- |
| B1 | 10.4 |
| B2 | 28 |
| B3 | 25.1 |
| B4 | 15.1 |
| B5 | 7.48 |
| B6 | 7.01 |
| B7 | 28.4 |
| B8 | 1.6 |
| B9 | 10.2 |
| B10 | 7.31 |
| B11 | 5.56 |

Assay: 4-MUL assay, specific activity (Example 2)
Format: biochemical
Settings: primary screening; 10 μL enzyme; n=1
Method: as §1
The specific activity (SA) of the variant library was evaluated in a secondary 4-MUL assay. […] On average, a mutation at position 268 increases the specific activity by 2.5 fold over that of wild type. A mutation at 268 in combination with 411 is around 1.5-1.6 fold higher than wild-type, on average.

| Molecule | SA (μmol 4 MU/min/mg) (MUL Data) |
| --- | --- |
| B1 | 0.89 |
| B2 | 0.58 |
| B3 | 1.72 |
| B4 | 1.39 |
| B5 | 1.33 |
| B6 | 0.81 |
| B7 | 3.07 |
| B8 | 0.38 |
| B9 | 2.12 |
| B10 | 1.80 |
| B11 | 1.19 |
